One assay concerns the target cyclin A (Homo sapiens) (UniProt P20248). Conditions: cited from earlier work.
The target of another assay is Cdk2 (Homo sapiens) (UniProt P24941). Particulars: cited from earlier work.
The target in assay [1] is Cdk2/cyclin A complex (full length human Cdk2 with truncated human cyclin A, residues 173–432) (human) (UniProt P24941). As to the kind of experiment: ITC. (In general: Isothermal titration calorimetry measures the heat released or taken up as one component is titrated into another.)

By Kd is commonly meant the free concentration of one partner at which half of the binding sites on the other are occupied at equilibrium, for simple one-to-one binding.

cyclin A (Homo sapiens), sequence (P20248 whole entry): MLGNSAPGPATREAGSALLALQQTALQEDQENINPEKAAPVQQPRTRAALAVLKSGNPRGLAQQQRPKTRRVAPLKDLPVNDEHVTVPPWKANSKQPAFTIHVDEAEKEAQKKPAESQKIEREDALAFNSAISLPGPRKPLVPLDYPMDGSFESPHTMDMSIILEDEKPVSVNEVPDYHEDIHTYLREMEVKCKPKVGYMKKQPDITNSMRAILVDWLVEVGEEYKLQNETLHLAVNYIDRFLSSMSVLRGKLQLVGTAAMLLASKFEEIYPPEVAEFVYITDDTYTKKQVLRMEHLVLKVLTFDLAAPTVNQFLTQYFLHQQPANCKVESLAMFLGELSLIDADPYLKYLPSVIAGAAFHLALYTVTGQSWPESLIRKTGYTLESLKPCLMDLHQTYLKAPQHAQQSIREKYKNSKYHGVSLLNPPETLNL

As to p27 D1 (from UniProt P46527), in the assay with cyclin A (Homo sapiens), the Kd is 0.025 µM.

Take p27 D2 (from UniProt P46527): the Kd with Cdk2 (Homo sapiens) is 0.07 µM.

As for “sub-domain D1 of p21 (domain or fragment)”, the Kd in assay [1] is 0.061 µM.

Values taken from PMC3124363.
